Experimental data taken from paper PMC5477490 (Nature Communications, 2016).

What was measured:
Assay in all cases: BLI; […] (AHC) biosensor, […]; Octet Red; 25 °C; kinetics buffer 1 × PBS, pH 7.4; association 900 s, dissociation 900 s; […]
Conditions in all cases: both partners purified
[1] = biological target: HA of A/Vietnam/1203/2004(H5N1) (Influenza A virus …, UniProt A8UDR6, strain)
[2] = biological target: HA of A/Anhui/1/2005(H5N1) (Influenza A virus A/Anhui/1/2005(H5N1), strain)
[3] = biological target: HA of A/Canada/720/2005(H2N2) (Influenza A virus …, UniProt Q4ZH98, strain)
[4] = biological target: T1, HA of A/Brevig Mission/1/1918(H1N1) (Influenza A virus A/Brevig …, UniProt Q9WFX3, strain)
T1 construct: source: bought: Sino Biological Inc

[5] = biological target: HA of A/WSN/1933(H1N1) (Influenza A virus A/WSN/1933(H1N1), strain)
[6] = biological target: HA of A/Brisbane/59/2007(H1N1) (Influenza A virus …, strain)
[7] = biological target: HA of A/California/07/2009(H1N1) (Influenza A virus …, UniProt C3W5X2, strain)
[8] = biological target: HA of A/Hong Kong/483/1997(H5N1) (Influenza A virus A/Hong …, strain)

B1: human mAb 3E1 (antibody, V domains shown)
VH: QVQLQESGPGLVKPSETLSLTCSVSGASISSYYWIWIRQPAGKGLEWIGRFYTSGSPNYNPSLRSRVTMSVDTSKNQFSLKLTSVTAADTAVYYCAREEHITFGGVIVRYWGQGTLVTVSS
VL: DIQMTQSPATLSASVGDRVSITCRASQSISSWLAWYQQKPGKAPKLLIYKASSLESGVPSRFSGSGSGSEFTLTISSLQPDDFAIYYCQQYNSYPWTFGQGTKVEIK
notes: IgG1, kappa; also called 3E1 mAb
binding result [1]: binds
binding result [2]: binds
binding result [3]: no binding
binding result [4]: binds
binding result [5]: binds
binding result [6]: binds
binding result [7]: binds
binding result [8]: binds
